± gives the standard deviation of the averaged measurements.

For 79 sequences, switch fluorescence ratio results are on record in the supplement of paper PMC10126150.

The data set relates to ATP. Description: switch fluorescence ratio, 500 uM ATP over buffer (Cy3 cluster intensity, sum of 5 cycles each) (fold (ratio)); higher = stronger signal-on switching upon ATP binding; sequences stand for … in TCGTCGGCAGCGTCAGATGTGTATAAGAGACAGTTTTTTTTTTTTTTTTTTTTTTTTT…TC. To be noted: aptamer strand: ATP DNA aptamer (quencher-CACCTGGGGGAGTATTGCGGAGGAAGG + anchor), 100 nM annealed; ATP concentration: 500 uM. In short, it runs like this:
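Clusters carrying Cy3-labelled switching strands on a modified Illumina MiSeq flow-cell were annealed to 100 nM quencher-labelled ATP aptamer and imaged in selection buffer. They were imaged again after 15 min with 500 uM ATP at 22 °C, over five buffer/ATP cycles with NaOH stripping and re-annealing in between. For each cluster, the fluorescence ratio is the summed Cy3 intensity of the target cycles divided by that of the buffer cycles, averaged per switch-domain sequence. Clusters outside 100-1000 RFU were left out.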
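Also: ATP exposure 15 min at 22 °C before imaging.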

On to TTTAAAGCGG, for which the switch fluorescence ratio is 1.01 ± 0.026.

With TTTAAAGGGG, the switch fluorescence ratio is 1.05 ± 0.14.

TTTAAAGTGG: the switch fluorescence ratio was 0.98 ± 0.015.

Consider TTTAAATAAA, for which the switch fluorescence ratio is 1 ± 0.017.

For the sequence TTTAAATGCC, the switch fluorescence ratio came out at 1.05 ± 0.05.

As for TTTAACAACT, the switch fluorescence ratio amounted to 1.01 ± 0.017.

Turning to TTTAACCGGT, the switch fluorescence ratio is 1.047 ± 0.0073.

In the case of TTTAACCTGC, the switch fluorescence ratio is 1.06 ± 0.011.

For TTTAACGGGA, the switch fluorescence ratio amounted to 1.15 ± 0.17.

Consider TTTAACGTCA, for which the switch fluorescence ratio was 1.05 ± 0.023.

On to TTTAAGAAAT, for which the switch fluorescence ratio was found to be 0.986 ± 0.011.

TTTAAGACGA: the switch fluorescence ratio was determined as 1.02 ± 0.014.

Consider TTTAAGGGAC, for which the switch fluorescence ratio was determined as 1.05 ± 0.021.

For TTTAAGTACG, the switch fluorescence ratio stood at 1.21 ± 0.048.

In the case of TTTAATAAAG, the switch fluorescence ratio is 1.02 ± 0.041.

For the sequence TTTAATAATT, the switch fluorescence ratio is 1.03 ± 0.032.

Consider TTTAATACGT, for which the switch fluorescence ratio came out at 1.023 ± 0.0034.

On to TTTAATCATT, for which the switch fluorescence ratio came to 1 ± 0.029.

For TTTAATGCGC, the switch fluorescence ratio was 1.23 ± 0.37.

For TTTAATGGAG, the switch fluorescence ratio is 1.02 ± 0.034.

Take TTTAATGGGA: the switch fluorescence ratio was 1.03 ± 0.05.

As to TTTAATTA, the switch fluorescence ratio was found to be 1.01 ± 0.032.

TTTAATTACT: the switch fluorescence ratio turned out to be 1.04 ± 0.037.

For TTTAATTAGG, the switch fluorescence ratio amounted to 1.03 ± 0.028.

Turning to TTTAATTTAT, the switch fluorescence ratio worked out at 1.09 ± 0.12.

In the case of TTTAATTTTA, the switch fluorescence ratio is 1 ± 0.02.

For TTTAATTTTT, the switch fluorescence ratio stood at 0.988 ± 0.036.

With TTTACAGTTG, the switch fluorescence ratio came to 0.96 ± 0.014.

Consider TTTACCCGGC, for which the switch fluorescence ratio amounted to 1.1 ± 0.13.

On to TTTACCGCTC, for which the switch fluorescence ratio came out at 1.26 ± 0.073.

With TTTACGAGGT, the switch fluorescence ratio was determined as 1.01 ± 0.037.

Take TTTACGAGTA: the switch fluorescence ratio worked out at 1.01 ± 0.012.

For TTTACGAGTG, the switch fluorescence ratio was found to be 1.03 ± 0.019.

For TTTACGCGCA, the switch fluorescence ratio came to 1.01 ± 0.03.

For TTTACGGAGG, the switch fluorescence ratio came to 1.03 ± 0.021.

As for TTTACGTAGT, the switch fluorescence ratio stood at 1.03 ± 0.019.

Take TTTACGTGCG: the switch fluorescence ratio was found to be 1.054 ± 0.0061.

On to TTTACGTTTT, for which the switch fluorescence ratio came out at 1.03 ± 0.041.

TTTACTCGCA: the switch fluorescence ratio was 1.3 ± 0.12.

As to TTTACTGAGA, the switch fluorescence ratio is 1.01 ± 0.033.

For TTTACTTGTG, the switch fluorescence ratio was determined as 1.01 ± 0.035.

Consider TTTAGAAATA, for which the switch fluorescence ratio amounted to 1.05 ± 0.022.

As for TTTAGAACTT, the switch fluorescence ratio turned out to be 1.01 ± 0.077.

For TTTAGAAGGA, the switch fluorescence ratio amounted to 0.9796 ± 0.0067.

For the sequence TTTAGAGATG, the switch fluorescence ratio came to 1.24 ± 0.41.

Regarding TTTAGATTGA, the switch fluorescence ratio was 0.99606 ± 0.00096.

Turning to TTTAGCACGA, the switch fluorescence ratio is 1 ± 0.024.

Consider TTTAGCATAA, for which the switch fluorescence ratio was 1.23 ± 0.13.

In the case of TTTAGCGTCA, the switch fluorescence ratio is 0.9891 ± 0.0056.

As to TTTAGGACGA, the switch fluorescence ratio worked out at 0.981 ± 0.017.

As to TTTAGGAGGT, the switch fluorescence ratio stood at 1.04 ± 0.049.

For the sequence TTTAGGATCC, the switch fluorescence ratio was found to be 0.983 ± 0.022.

In the case of TTTAGGCAT, the switch fluorescence ratio was 0.986 ± 0.028.

With TTTAGGGAAA, the switch fluorescence ratio is 0.961 ± 0.033.

Regarding TTTAGGGACA, the switch fluorescence ratio stood at 1.15 ± 0.1.

Consider TTTAGGGACT, for which the switch fluorescence ratio came out at 1.02 ± 0.024.

On to TTTAGGGATT, for which the switch fluorescence ratio worked out at 1.03 ± 0.037.

As for TTTAGGGGGT, the switch fluorescence ratio is 0.991 ± 0.023.

Turning to TTTAGGTACT, the switch fluorescence ratio turned out to be 1.25 ± 0.34.

On to TTTAGGTAGT, for which the switch fluorescence ratio amounted to 0.975 ± 0.021.

For TTTAGGTCAA, the switch fluorescence ratio was found to be 0.9943 ± 0.0031.

Regarding TTTAGGTGCA, the switch fluorescence ratio was 1.16 ± 0.14.

For TTTAGGTGTG, the switch fluorescence ratio amounted to 1.02 ± 0.039.

In the case of TTTAGGTTAA, the switch fluorescence ratio turned out to be 0.9752 ± 0.0074.

In the case of TTTAGGTTGT, the switch fluorescence ratio came out at 0.9984 ± 0.0073.

On to TTTAGTACGT, for which the switch fluorescence ratio came out at 1.02 ± 0.057.

Turning to TTTAGTATTT, the switch fluorescence ratio amounted to 1.01 ± 0.037.

Turning to TTTAGTCGCA, the switch fluorescence ratio came to 0.998 ± 0.035.

For the sequence TTTAGTGAAC, the switch fluorescence ratio amounted to 1.025 ± 0.0089.

With TTTAGTGAAT, the switch fluorescence ratio was 0.9966 ± 0.0051.

As to TTTAGTGCCT, the switch fluorescence ratio was 1.04 ± 0.012.

As for TTTAGTGTGC, the switch fluorescence ratio was 1.01 ± 0.03.

Consider TTTAGTTCCG, for which the switch fluorescence ratio is 0.935 ± 0.025.

Consider TTTAGTTGAC, for which the switch fluorescence ratio was 0.9956 ± 0.0092.

Consider TTTAGTTTG, for which the switch fluorescence ratio amounted to 1 ± 0.037.

On to TTTAGTTTTC, for which the switch fluorescence ratio came out at 0.991 ± 0.019.

Turning to TTTATAACAC, the switch fluorescence ratio came to 1.05 ± 0.013.

As to TTTATACCGA, the switch fluorescence ratio amounted to 1.067 ± 0.004.

Regarding TTTATACCTA, the switch fluorescence ratio stood at 1.03 ± 0.023.
